Source: article PMC7347597, “INTS10–INTS13–INTS14 form a functional module of Integrator that binds nucleic acids and the cleavage module” (Nature Communications, 2020)
Values belong to the binder of their own block, whether it stands above or below them.

Key:
[1] = target: T1, INTS13-INTS14 heterodimer (Homo sapiens, UniProt Q9NVM9;Q96SY0 1-706;1-518); experiment: fluorescence polarization; FP: 10 nM RNA, 10 mM HEPES pH 7.5, 5% glycerol, 2 mM MgCl2, 50 mM NaCl or none added, temperature not stated; EMSA: 50 mM HEPES pH 7.5, 200 mM NaCl, 2 mM MgCl2, on ice, 2 uM RNA or 1 uM DNA; conditions: protein: recombinant; tags: INTS13 N-terminal 2xStrep, HRV 3C cleavable (removed if needed); copies: 1;1; label: 5'-6-FAM; single strand
T1 sequence (Q9NVM9 whole entry, chain 1 of 2): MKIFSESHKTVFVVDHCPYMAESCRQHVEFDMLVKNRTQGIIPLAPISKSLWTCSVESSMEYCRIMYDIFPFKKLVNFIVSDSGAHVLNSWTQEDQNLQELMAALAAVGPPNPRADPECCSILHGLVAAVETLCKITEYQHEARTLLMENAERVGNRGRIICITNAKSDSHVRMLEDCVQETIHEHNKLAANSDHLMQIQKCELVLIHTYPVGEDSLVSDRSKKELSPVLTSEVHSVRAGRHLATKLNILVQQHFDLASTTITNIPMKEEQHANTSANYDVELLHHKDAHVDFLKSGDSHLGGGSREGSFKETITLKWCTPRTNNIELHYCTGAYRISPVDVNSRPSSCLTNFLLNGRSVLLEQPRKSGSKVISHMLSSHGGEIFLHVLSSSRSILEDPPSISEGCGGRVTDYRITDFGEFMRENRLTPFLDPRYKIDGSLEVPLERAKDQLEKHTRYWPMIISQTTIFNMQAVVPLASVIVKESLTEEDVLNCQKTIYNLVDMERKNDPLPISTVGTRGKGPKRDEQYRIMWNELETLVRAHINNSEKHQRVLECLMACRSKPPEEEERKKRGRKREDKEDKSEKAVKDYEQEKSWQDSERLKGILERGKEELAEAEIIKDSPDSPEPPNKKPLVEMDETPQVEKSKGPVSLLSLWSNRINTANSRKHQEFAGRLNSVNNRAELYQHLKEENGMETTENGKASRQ
T1 sequence (Q96SY0 whole entry, chain 2 of 2): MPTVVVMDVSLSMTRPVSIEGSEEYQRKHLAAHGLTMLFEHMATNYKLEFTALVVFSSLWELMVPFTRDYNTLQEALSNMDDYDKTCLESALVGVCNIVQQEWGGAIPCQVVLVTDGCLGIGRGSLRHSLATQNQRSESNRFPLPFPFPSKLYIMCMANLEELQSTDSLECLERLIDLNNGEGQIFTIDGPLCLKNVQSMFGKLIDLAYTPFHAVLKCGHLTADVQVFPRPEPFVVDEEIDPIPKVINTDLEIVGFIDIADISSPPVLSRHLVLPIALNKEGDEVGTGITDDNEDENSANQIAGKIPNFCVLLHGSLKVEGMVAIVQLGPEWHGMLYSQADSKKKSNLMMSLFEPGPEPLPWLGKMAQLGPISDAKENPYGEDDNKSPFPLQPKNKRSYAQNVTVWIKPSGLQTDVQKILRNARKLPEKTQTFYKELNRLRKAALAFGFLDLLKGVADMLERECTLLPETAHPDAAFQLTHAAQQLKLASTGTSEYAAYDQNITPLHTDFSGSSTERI

[2] = target: T2, INTS10-INTS13-INTS14 heterotrimer (Homo sapiens, UniProt Q9NVR2;Q9NVM9;Q96SY0 1-710;1-706;1-518); experiment: as above; conditions: protein: recombinant; tags: INTS13 N-terminal 2xStrep, HRV 3C cleavable (removed if needed); copies: 1;1;1; label: 5'-6-FAM; single strand
T2 sequence (Q9NVR2 whole entry, chain 1 of 3): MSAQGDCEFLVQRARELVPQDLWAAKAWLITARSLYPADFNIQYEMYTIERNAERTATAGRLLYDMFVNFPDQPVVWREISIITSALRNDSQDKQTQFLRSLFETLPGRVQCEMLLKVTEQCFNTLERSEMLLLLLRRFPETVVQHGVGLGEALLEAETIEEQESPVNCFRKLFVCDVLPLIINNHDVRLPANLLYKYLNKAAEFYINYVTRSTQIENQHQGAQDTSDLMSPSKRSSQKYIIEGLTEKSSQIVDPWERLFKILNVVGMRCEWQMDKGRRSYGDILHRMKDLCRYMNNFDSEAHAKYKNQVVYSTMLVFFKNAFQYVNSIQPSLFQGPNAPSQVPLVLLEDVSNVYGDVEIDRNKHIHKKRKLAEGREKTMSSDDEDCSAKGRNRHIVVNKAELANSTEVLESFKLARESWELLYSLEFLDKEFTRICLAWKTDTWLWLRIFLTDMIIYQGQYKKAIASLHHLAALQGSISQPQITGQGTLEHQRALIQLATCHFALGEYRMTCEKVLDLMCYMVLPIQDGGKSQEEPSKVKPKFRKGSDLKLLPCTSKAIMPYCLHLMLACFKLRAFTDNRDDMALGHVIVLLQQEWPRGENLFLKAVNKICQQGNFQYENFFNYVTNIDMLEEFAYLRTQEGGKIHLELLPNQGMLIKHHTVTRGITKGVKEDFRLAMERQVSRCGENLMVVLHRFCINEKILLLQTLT
T2 sequence (Q9NVM9 whole entry, chain 2 of 3): as the sequence (Q9NVM9 whole entry, chain 1 of 2) above
T2 sequence (Q96SY0 whole entry, chain 3 of 3): as the sequence (Q96SY0 whole entry, chain 2 of 2) above

[3] = target: T3, INT cleavage module (His10-INTS4–INTS9–(2S)-INTS11) (human, UniProt Q96HW7 1-963; Q9NV88 1-658; Q5TA45 1-600); experiment: pull-down; GST-INTS13 C-terminal constructs from E. coli lysates with insect cell extracts expressing cleavage module subunits, on glutathione sepharose; 50 mM HEPES pH 7.5, 200 mM NaCl, 2 mM DTT; Coomassie gel and Western blots; conditions: partners not purified
T3 construct: INTS4, human; INTS9, human; INTS11, human; The tags are named in the methods of the copurification assays; also called INTS4–INTS9–INTS11; INTS4–9–11; source: insect cells (HighFive, baculovirus), coexpressed; in cell extract and purified (StrepTrap, heparin, Superose 6); not shown: His10, N-terminal, kept; tandem Strep tag (2S), N-terminal, kept; copies: + +
T3 sequence (Q96HW7 whole entry, chain 1 of 3): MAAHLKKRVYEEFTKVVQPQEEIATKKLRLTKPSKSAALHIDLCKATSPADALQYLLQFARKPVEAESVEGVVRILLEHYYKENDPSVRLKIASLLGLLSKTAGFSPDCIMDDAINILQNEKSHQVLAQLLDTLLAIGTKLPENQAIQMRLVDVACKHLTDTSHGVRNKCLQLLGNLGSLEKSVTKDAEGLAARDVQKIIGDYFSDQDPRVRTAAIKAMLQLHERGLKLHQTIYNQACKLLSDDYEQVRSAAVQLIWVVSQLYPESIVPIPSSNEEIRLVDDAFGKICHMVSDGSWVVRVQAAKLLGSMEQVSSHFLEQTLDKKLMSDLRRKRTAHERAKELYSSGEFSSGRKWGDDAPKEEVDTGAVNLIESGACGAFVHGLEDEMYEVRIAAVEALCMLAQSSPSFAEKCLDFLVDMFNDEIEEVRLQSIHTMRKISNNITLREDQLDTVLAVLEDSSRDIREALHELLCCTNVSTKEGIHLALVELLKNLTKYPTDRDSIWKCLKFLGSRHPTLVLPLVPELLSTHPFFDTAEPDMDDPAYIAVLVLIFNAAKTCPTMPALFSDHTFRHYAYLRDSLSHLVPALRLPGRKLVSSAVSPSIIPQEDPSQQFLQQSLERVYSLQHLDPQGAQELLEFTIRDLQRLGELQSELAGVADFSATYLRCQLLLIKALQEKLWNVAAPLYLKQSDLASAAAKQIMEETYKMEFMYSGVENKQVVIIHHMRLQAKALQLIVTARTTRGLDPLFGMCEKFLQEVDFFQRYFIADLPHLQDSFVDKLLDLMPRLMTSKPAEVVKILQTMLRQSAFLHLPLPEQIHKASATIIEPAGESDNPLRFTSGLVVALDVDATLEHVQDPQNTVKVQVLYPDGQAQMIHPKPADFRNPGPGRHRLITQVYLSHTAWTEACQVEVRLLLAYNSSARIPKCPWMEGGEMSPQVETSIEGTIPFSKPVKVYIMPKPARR
T3 sequence (Q9NV88 whole entry, chain 2 of 3): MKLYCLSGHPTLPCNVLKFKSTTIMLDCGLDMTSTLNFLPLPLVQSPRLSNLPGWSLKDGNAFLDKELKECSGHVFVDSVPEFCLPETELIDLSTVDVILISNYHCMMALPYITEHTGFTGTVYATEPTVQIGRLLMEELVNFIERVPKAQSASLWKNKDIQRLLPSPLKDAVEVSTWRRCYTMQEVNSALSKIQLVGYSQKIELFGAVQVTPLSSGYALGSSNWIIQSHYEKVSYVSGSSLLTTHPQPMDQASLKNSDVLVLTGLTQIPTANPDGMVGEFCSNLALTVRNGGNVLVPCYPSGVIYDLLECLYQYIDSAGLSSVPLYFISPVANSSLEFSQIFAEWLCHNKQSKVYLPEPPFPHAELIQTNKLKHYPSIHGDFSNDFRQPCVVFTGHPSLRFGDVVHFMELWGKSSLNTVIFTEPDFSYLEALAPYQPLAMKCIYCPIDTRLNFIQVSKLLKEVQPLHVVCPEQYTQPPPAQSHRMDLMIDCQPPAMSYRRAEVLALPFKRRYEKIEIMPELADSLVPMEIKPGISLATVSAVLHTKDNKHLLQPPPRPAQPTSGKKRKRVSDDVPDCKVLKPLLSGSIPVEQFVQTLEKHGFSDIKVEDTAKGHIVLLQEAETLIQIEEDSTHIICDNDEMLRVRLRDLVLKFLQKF
T3 sequence (Q5TA45 whole entry, chain 3 of 3): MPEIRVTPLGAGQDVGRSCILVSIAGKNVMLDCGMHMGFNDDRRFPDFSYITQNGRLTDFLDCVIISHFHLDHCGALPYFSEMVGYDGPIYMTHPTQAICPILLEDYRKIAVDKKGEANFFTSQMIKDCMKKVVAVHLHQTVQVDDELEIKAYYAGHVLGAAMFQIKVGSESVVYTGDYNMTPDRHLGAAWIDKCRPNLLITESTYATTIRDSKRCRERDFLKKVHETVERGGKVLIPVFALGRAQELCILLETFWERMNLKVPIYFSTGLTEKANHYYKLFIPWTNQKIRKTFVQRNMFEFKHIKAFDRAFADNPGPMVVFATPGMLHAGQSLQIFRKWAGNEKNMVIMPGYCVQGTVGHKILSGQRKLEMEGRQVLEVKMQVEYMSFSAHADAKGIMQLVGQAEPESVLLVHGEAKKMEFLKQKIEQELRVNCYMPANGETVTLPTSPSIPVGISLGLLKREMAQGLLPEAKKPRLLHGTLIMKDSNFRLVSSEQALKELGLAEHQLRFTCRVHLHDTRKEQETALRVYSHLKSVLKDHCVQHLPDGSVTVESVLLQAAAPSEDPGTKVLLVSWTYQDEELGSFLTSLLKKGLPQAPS

[4] = target: T1, INTS13-INTS14 heterodimer; experiment: EMSA; FP: 10 nM RNA, 10 mM HEPES pH 7.5, 5% glycerol, 2 mM MgCl2, 50 mM NaCl or none added, temperature not stated; EMSA: 50 mM HEPES pH 7.5, 200 mM NaCl, 2 mM MgCl2, on ice, 2 uM RNA or 1 uM DNA; conditions: protein: recombinant; tags: INTS13 N-terminal 2xStrep, HRV 3C cleavable (removed if needed); copies: 1;1; hairpin
[5] = target: T2, INTS10-INTS13-INTS14 heterotrimer; experiment: as above; conditions: protein: recombinant; tags: INTS13 N-terminal 2xStrep, HRV 3C cleavable (removed if needed); copies: 1;1;1; hairpin

Binder: UUUUUUUUUUUU (ssRNA) [U12 RNA]
Kd [1]: 570 ± 50 nM | Kd [2]: 420 ± 20 nM

binding result [3]: binds
B1: GST-INTS13 cleavage module-binding motif (CMBM, residues 649–694) (domain or fragment, human, UniProt Q9NVM9 649-694, looked up)
chain: GPVSLLSLWSNRINTANSRKHQEFAGRLNSVNNRAELYQHLKEENG
notes: INTS13, human, conserved C-terminal helices, residues 649–694; also called GST-CMBM; INTS13 CMBM; source: E. coli BL21 Star (DE3), in lysate; not shown: GST, N-terminal, kept

Binder: GGGUGGGGGACUGCGUUCGCGCUUUCCCCUGGCCGG (structured_RNA) [U1 SL4]
binding result [4]: binds | apparent K (half saturation) [5]: ~1000 nM
